Laboratory results from PMC9482650, “Quantitative fragmentomics allow affinity mapping of interactomes” (Nature Communications, 2022).

T1: APBA1_1, Q02410
T1 sequence (Q02410 651-752, limits assumed, looked up): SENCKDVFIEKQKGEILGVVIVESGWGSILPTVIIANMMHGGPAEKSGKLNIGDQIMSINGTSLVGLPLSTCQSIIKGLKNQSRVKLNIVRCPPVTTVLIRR

T2: GRIP1_2, Q9Y3R0
T2 sequence (Q9Y3R0 145-248, limits assumed, looked up): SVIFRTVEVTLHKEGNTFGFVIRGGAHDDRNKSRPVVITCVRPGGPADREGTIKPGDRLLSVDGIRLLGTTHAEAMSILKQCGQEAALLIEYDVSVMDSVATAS


Columns and labels:
APBA1_1, Q02410 = biological target: T1, APBA1_1, Q02410; assay: holdup assay; parameters: key: below the threshold = too weak to quantify, mostly under pKd 3.1 to 4
GRIP1_2, Q9Y3R0 = biological target: T2, GRIP1_2, Q9Y3R0; assay: holdup assay; parameters: key: below the threshold = too weak to quantify, mostly under pKd 3.1 to 4
[1] = plain residues with an end cap or a label only (N-terminal biotin on a linker: ado-ado)
[2] = modified: phospho on T at position -2 from the C-terminal residue

Binder	pKd (APBA1_1, Q02410; [1])	pKd (GRIP1_2, Q9Y3R0; [1])	pKd (APBA1_1, Q02410; [2])	pKd (GRIP1_2, Q9Y3R0; [2])
DDENIRTSDV [PLEKHA2, Q9HB19]	below the threshold	below the threshold	–	–
KKMPSIESDV [GRIN2A, Q12879]	below the threshold	below the threshold	–	–
HSGYRLNDYV [CLDN14, O95500]	below the threshold	below the threshold	–	–
TACCHSETVV [TGFA, P01135]	below the threshold	below the threshold	–	–
TSSMRGMDAV [RSRC2, Q7L4I2]	below the threshold	below the threshold	–	–
TLPRKRMSSI [GPRC6A, Q5T6X5]	below the threshold	below the threshold	–	–
QSPANIYYKV [EFNB1, P52799]	below the threshold	below the threshold	–	–
KSGKQTMLVV [TRIM29, Q14134;Q14134-2]	below the threshold	below the threshold	–	–
SAAKVLTSMC [GHRHR, Q02643]	below the threshold	below the threshold	–	–
QSARLWETSI [ADAM22, Q9P0K1]	below the threshold	below the threshold	–	–
MLSKQSESAI [FLVCR1, Q9Y5Y0]	below the threshold	below the threshold	–	–
TASPAKETSF [SLC2A7, Q6PXP3]	below the threshold	below the threshold	–	–
RKPKPSSSCC [RAB9A, P51151]	below the threshold	below the threshold	–	–
YRLAQESGLV [ABCC6, O95255]	below the threshold	below the threshold	–	–
LKVPPEERLI [CRB2, Q5IJ48]	below the threshold	below the threshold	–	–
ETQVTAETVI [TMEM225B, P0DP42]	below the threshold	below the threshold	–	–
SGSLKLMTTV [DACT1, Q9NYF0]	below the threshold	below the threshold	–	–
SNAGNTATKA [NOSTRIN, Q8IVI9]	below the threshold	below the threshold	–	–
TKGPRGPTRV [SAPCD1, Q5SSQ6]	below the threshold	below the threshold	–	–
QGPVETESVV [SLC45A4, Q5BKX6]	below the threshold	below the threshold	–	–

Binder	pKd (APBA1_1, Q02410; [1])	pKd (GRIP1_2, Q9Y3R0; [1])	pKd (APBA1_1, Q02410; [2])	pKd (GRIP1_2, Q9Y3R0; [2])
KKAPTNEFYA [SDC4, P31431]	below the threshold	below the threshold	–	–
FNSYSLTGYV [CLDN2, P57739]	below the threshold	below the threshold	–	–
VKPQVSESKL [ACOT8, O14734]	below the threshold	below the threshold	–	–
PRAEAEDSFL [PDGFRB, P09619]	3.68	below the threshold	–	–
EALLQMESVA [CAVIN3, Q969G5]	below the threshold	below the threshold	–	–
EKKTLIGIKL [GOT1L1, Q8NHS2]	below the threshold	below the threshold	–	–
IKAIVDLTGL [TRAF2, Q12933]	below the threshold	below the threshold	–	–
SARSRLSSNL [HCN2, Q9UL51]	below the threshold	below the threshold	–	–
GSGAVEMESV [AQP6, Q13520]	below the threshold	below the threshold	–	–
CLREWCDAFL [BANF1, O75531]	3.72	below the threshold	–	–
PPYRHRNTVV [ERBB4, Q15303]	below the threshold	below the threshold	–	–
RRISSLESEV [GRIN2C, Q14957]	below the threshold	below the threshold	–	–
LGRSTPQSEV [DGKH, Q86XP1]	below the threshold	below the threshold	–	–
YNNCLEILRV [DCAF7, P61962]	below the threshold	below the threshold	–	–
RRLPGKETMA [GRIK2, Q13002]	below the threshold	below the threshold	–	–
SKPTRRETEV [HPV35-E6_-2P, P27228]	–	–	below the threshold	below the threshold
RRRESYSTTV [EVI5, O60447]	below the threshold	below the threshold	–	–
LPAHHNATRL [SLC34A1, Q06495;Q06495-1]	below the threshold	below the threshold	–	–
LRSPRTPSEV [OR10G3, Q8NGC4]	below the threshold	below the threshold	–	–
